Data on 19 molecules can be found in patent US20050282739A1 (PALATIN TECHNOLOGIES, published 2005).

The target in assay [1] is T1, melanocortin-1 receptor (MC1-R) of B-16 mouse melanoma cells (mouse, UniProt Q01727 1-315).
T1 construct: whole, on cells; membranes prepared from the cells were used; also called Melanocortin Receptor 1
The assay is described as follows: 125I-NDP-α-MSH competition, B-16 membranes. The protocol:
(§1) The competitive inhibition binding assay was conducted using membranes prepared from hMC3-R, hMC4-R, hMC5-R, and B-16 mouse melanoma cells (containing MC1-R) using 0.4 nM ¹²⁵I-NDP-alpha-MSH (New England Nuclear, Boston, Mass., USA) in 50 mM HEPES buffer containing 1 mM MgCl₂, 2 mM CaCl₂, and 5 mM KCl, at pH 7.2. […] Incubation was for 90 minutes at room temperature, after which the assay mixture was filtered and the membranes washed three times with ice cold buffer. The filter was dried and counted in a gamma counter for remaining radioactivity bound to the membranes. 100% specific binding was defined as the difference in radioactivity (cpm) bound to cell membranes in the absence and presence of 1 μM α-MSH. […] Each assay was conducted in triplicate and the actual mean valves are described.
(§2) The methods and assays set forth in Example 1 were followed.

In assay [2] the target is T2, human melanocortin-4 receptor (hMC4-R) (human, UniProt P32245 1-332).
T2 construct: whole, on cells; membranes prepared from hMC4-R cells were used; also called Melanocortin Receptor 4
T2 sequence (P32245 whole entry): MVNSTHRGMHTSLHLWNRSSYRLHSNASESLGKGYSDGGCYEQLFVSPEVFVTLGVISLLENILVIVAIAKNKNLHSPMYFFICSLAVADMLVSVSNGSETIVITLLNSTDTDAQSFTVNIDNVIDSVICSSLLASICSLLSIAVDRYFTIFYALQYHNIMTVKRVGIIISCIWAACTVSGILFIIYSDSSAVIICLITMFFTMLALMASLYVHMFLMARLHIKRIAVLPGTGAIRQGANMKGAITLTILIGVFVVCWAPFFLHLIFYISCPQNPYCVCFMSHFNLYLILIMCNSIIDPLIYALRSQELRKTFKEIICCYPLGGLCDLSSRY
The experiment in a line: 125I-NDP-α-MSH competition, hMC4-R membranes. The protocol:
as §1, §2

The target in assay [3] is T3, human melanocortin-5 receptor (hMC5-R) (human, UniProt P33032 1-325).
T3 construct: whole, on cells; membranes prepared from hMC5-R cells were used; also called Melanocortin Receptor 5
T3 sequence (P33032 whole entry): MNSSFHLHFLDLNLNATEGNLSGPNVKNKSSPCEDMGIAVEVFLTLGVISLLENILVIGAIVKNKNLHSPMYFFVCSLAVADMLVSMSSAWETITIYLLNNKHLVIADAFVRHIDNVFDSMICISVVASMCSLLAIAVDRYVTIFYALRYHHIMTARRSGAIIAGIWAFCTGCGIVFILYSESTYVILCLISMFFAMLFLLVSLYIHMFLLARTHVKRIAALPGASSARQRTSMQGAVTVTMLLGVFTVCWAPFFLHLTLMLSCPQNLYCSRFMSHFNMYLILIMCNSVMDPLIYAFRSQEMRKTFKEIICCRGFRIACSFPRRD
The experiment in a line: 125I-NDP-α-MSH competition, hMC5-R membranes. The protocol: as §1, §2

In assay [4] the target is T4, human melanocortin-3 receptor (hMC3-R) (human, UniProt P41968 1-323).
T4 construct: whole, on cells; membranes prepared from hMC3-R cells were used; also called Melanocortin Receptor 3
T4 sequence (P41968 whole entry): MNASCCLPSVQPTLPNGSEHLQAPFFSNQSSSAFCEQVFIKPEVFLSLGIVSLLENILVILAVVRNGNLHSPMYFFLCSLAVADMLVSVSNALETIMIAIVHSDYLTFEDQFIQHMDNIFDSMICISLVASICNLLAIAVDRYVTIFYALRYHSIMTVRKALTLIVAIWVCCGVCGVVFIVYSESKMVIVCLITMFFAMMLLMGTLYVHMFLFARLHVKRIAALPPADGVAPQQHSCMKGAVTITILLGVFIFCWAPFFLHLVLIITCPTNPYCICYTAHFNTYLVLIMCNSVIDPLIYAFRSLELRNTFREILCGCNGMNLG
The experiment in a line: 125I-NDP-α-MSH competition, hMC3-R membranes. How it is done: as §1, §2

Square brackets hold non-standard residues; d marks the D form. Ends that are not written are not given here. Nle = CCCC[C@H](N)C(=O)O

T1 sequence (Q01727 whole entry): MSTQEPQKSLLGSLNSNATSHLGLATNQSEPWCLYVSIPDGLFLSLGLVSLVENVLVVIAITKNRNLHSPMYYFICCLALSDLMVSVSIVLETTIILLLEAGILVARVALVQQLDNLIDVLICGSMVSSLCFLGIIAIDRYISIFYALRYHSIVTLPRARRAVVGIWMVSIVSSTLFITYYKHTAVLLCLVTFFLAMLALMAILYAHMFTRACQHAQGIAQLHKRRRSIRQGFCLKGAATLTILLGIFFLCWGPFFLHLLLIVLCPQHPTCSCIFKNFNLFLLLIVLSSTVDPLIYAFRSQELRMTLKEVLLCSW

B1: metallopeptide 4-3 (peptide)
peptide: YV[Nle]GHFRWDCRF-NH2
modifications: also: oxorhenium(V) N3S1 chelate: C10 SG + backbone N of W8, D9, C10, bridge at 10 via Re(V)=O, other end not in the chain
On to B1, for which the “% Inhibition at 1 µM” value was found to be 44% in assay [1], 23% in assay [2], 65% in assay [3] and 18% in assay [4].

B2: metallopeptide 4-2 (peptide)
peptide: YV[Nle]GHFRWDRCF-NH2
modifications: also: oxorhenium(V) N3S1 chelate: C11 SG + backbone N of D9, R10, C11, bridge at 11 via Re(V)=O, other end not in the chain
As for B2, the “% Inhibition at 1 µM” value in assay [1] was found to be 75%; in assay [2] it was 23%; in assay [3], 51%; in assay [4], 49%.

As for Ac-SYS[Nle][dC]EHFRWGKPV-NH2 (also: oxorhenium(V) N3S1 chelate at D-Cys5) [metallopeptide 2-10], the “% Inhibition at 1 µM” value in assay [1] is 65%; in assay [2], 18%; in assay [3], 0%; in assay [4], 0%.

With Ac-SYS[Nle]EHFRWGK[dC]PV-NH2 (also: oxorhenium(V) N3S1 chelate at D-Cys12) [metallopeptide 2-3], the “% Inhibition at 1 µM” value in assay [1] is 91%; in assay [2], 25%; in assay [3] it was 38%; in assay [4], 41%.

For YVXGHFRWDRFC (not fully specified; Nle 3; C-terminal amide; Re complexed at Cys 12) [metallopeptide 4-1], the “% Inhibition at 1 µM” value in assay [1] is 56%; in assay [2], 36%; in assay [3], 41%; in assay [4] it was 69%.

B3: metallopeptide 4-8 (peptide)
peptide: YV[Nle]GCHFRWDRF-NH2
modifications: also: oxorhenium(V) N3S1 chelate: C5 SG + backbone N of X3, G4, C5, bridge at 5 via Re(V)=O, other end not in the chain
B3: the “% Inhibition at 1 µM” value was 13% in assay [1], 45% in assay [3] and 33% in assay [4].

In the case of Ac-SYS[Nle]EHFRWGKG[dC]V-NH2 (also: oxorhenium(V) N3S1 chelate at D-Cys13) [metallopeptide 2-2], the “% Inhibition at 1 µM” value was found to be 93% in assay [1], 28% in assay [2], 32% in assay [3] and 26% in assay [4].

B4: metallopeptide 4-10 (peptide)
peptide: YVC[Nle]GHFRWDRF-NH2
modifications: bridge (positions not given here); not fully specified (bridges); printed as Tyr-Val-Cys-Nle-Gly-His-Phe-Arg-Trp-Asp-Arg-Phe-NH2.; also: oxorhenium(V) N3S1 complex
For the molecule B4, the entries for the “% Inhibition at 1 µM” value in assay [1], in assay [3] and in assay [4] were 28%, 17% and 10%, respectively.

For the molecule Ac-SYS[Nle]EH[dC]FRWGKPV-NH2 (also: oxorhenium(V) N3S1 chelate at D-Cys 7) [metallopeptide 2-8], the “% Inhibition at 1 µM” value in assay [1] was 69%; in assay [2] it was 25%; in assay [3] it was 29%; in assay [4] it was 0%.

As for Ac-SYS[dC][Nle]EHFRWGKPV-NH2 (also: oxorhenium(V) N3S1 chelate at D-Cys4) [metallopeptide 2-11], the “% Inhibition at 1 µM” value in assay [1] turned out to be 95%; in assay [2] it was 37%; in assay [3], 0%.

B5: metallopeptide 2-1 (peptide)
peptide: SYSXEHFRWGKGVC
modifications: N-terminal acetyl; Nle 4 (X in letters); D-Cys 14; C-terminal amide; Re complexed at D-Cys 14
Consider B5, for which the “% Inhibition at 1 µM” value is 97% in assay [1], 46% in assay [2], 53% in assay [3] and 72% in assay [4].

On to Ac-SY[dC]S[Nle]EHFRWGKPV-NH2 (also: oxorhenium(V) N3S1 chelate at D-Cys3) [metallopeptide 2-12], for which the “% Inhibition at 1 µM” value in assay [1] amounted to 97%; in assay [2] it was 47%; in assay [3], 17%; in assay [4] it was 21%.

B6: metallopeptide 4-5 (peptide)
peptide: YV[Nle]GHFRCWDRF-NH2
modifications: also: oxorhenium(V) N3S1 chelate: C8 SG + backbone N of F6, R7, C8, bridge at 8 via Re(V)=O, other end not in the chain
In the case of B6, the “% Inhibition at 1 µM” value in assay [1] worked out at 89%; in assay [2], 74%; in assay [3], 68%; in assay [4], 87%.

B7: metallopeptide 4-7 (peptide)
peptide: YV[Nle]GHCFRWDRF-NH2
modifications: also: oxorhenium(V) N3S1 chelate: C6 SG + backbone N of G4, H5, C6, bridge at 6 via Re(V)=O, other end not in the chain
In the case of B7, the “% Inhibition at 1 µM” value stood at 15% in assay [3] and 17% in assay [4].

In the case of Ac-SYS[Nle]E[dC]HFRWGKPV-NH2 (also: oxorhenium(V) N3S1 chelate at D-Cys 6) [metallopeptide 2-9], the “% Inhibition at 1 µM” value in assay [1] was determined as 92%; in assay [2], 35%; in assay [3], 2%; in assay [4], 13%.

B8: metallopeptide 4-4 (peptide)
peptide: YV[Nle]GHFRWCDRF-NH2
modifications: also: oxorhenium(V) N3S1 chelate: C9 SG + backbone N of R7, W8, C9, bridge at 9 via Re(V)=O, other end not in the chain
With B8, the “% Inhibition at 1 µM” value in assay [1] was 52%; in assay [2], 39%; in assay [3] it was 47%; in assay [4] it was 20%.

B9: metallopeptide 4-9 (peptide)
peptide: YV[Nle]CGHFRWDRF-NH2
modifications: also: oxorhenium(V) N3S1 chelate: C4 SG + backbone N of V2, X3, C4, bridge at 4 via Re(V)=O, other end not in the chain
As for B9, the “% Inhibition at 1 µM” value is 43% in assay [3] and 19% in assay [4].

B10: metallopeptide 4-6 (peptide)
peptide: YV[Nle]GHFCRWDRF-NH2
modifications: also: oxorhenium(V) N3S1 chelate: C7 SG + backbone N of H5, F6, C7, bridge at 7 via Re(V)=O, other end not in the chain
Regarding B10, the “% Inhibition at 1 µM” value in assay [3] was determined as 24%.

Consider YVXGHFRWDRF (Nle 3; C-terminal amide, not complexed to Re) [[Nle3]-γ-MSH parent polypeptide Tyr-Val-Nle-Gly-His-Phe-Arg-Trp-Asp-Arg-Phe-NH2], for which the “% Inhibition at 1 µM” value in assay [1] was found to be 83%; in assay [2] it was 58%; in assay [3], 43%; in assay [4], 85%.

For orientation: % Inhibition means the change of the read-out against control, counted positive when it falls. A low value points to a weak effect.
